Test [1] has as its target human Mpl expressed on BaF3 cells (BaF3-human Mpl) (human) (UniProt P40238). In words: cell-based or functional assay.
For test [2], the target named is T1, Human Mpl-IgG Fc fusion protein (hMpl-Fc) (human, UniProt P40238 26-491).
T1 construct: range 26-491; Expressed in CHO-DG44 cells with a 19-amino acid signal peptide from a human IgG H chain variable region, which is not part of the mature protein; No numbering scheme is named for Asp 216; also called shMPL-Fc; not shown: Fc region of human IgG-gamma1, a region downstream of Asp 216
T1 sequence: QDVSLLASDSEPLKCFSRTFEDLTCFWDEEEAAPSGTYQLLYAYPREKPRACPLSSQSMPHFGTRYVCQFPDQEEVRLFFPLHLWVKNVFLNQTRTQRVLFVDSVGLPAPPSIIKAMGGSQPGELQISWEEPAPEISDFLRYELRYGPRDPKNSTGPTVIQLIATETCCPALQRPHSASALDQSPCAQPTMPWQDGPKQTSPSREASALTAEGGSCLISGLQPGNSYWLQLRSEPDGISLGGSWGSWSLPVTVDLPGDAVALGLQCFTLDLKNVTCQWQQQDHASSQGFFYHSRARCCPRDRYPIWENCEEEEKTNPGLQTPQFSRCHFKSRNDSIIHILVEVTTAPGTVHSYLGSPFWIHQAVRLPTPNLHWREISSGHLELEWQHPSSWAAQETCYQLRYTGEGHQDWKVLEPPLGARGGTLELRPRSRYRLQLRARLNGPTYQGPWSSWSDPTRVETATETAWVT
In words: ELISA on plates coated with hMpl-Fc, sc(Fv)2 detected by anti-FLAG M2. Here is the method: (§1) The binding activity of anti-human Mpl single-chain antibody to hMPL-Fc was assessed using ELISA. After plates were coated with 0.5 μg/ml purified hMPL-Fc, blocking treatment was carried out using Diluent buffer. A purified product of VA130 was diluted to an appropriate concentration and added to the plates. Then, the plates were allowed to stand at room temperature for one hour. After washing with Rinse buffer, 1000-times-diluted ANTI-FLAG M2 Monoclonal Antibody (SIGMA-ALDRICH) was added. The plates were incubated at room temperature for one hour. Next, after washing with Rinse buffer, 1000-times-diluted Alkaline Phosphatase-labeled anti-mouse IgG antibody (Zymed) was added, and the plates were allowed to stand at room temperature for one hour. After washing with Rinse buffer, color development was achieved using SIGMA104 (SIGMA-ALDRICH) diluted to 1 mg/ml in substrate buffer. Color was developed for 15 minutes at room temperature and then absorbance was determined at 405 nm with Benchmark Plus.
In general terms: ELISA stands for enzyme-linked immunosorbent assay.

The target in test [3] is T1, Human Mpl-IgG Fc fusion protein …. In words: ELISA on plates coated with hMpl-Fc, diabody detected by anti-FLAG M2. How it is done:
as §1

Test [4] concerns the target T2, human Mpl expressed on BaF3 cells (BaF3-human Mpl) (human, UniProt P40238 26-635).
T2 sequence (looked up): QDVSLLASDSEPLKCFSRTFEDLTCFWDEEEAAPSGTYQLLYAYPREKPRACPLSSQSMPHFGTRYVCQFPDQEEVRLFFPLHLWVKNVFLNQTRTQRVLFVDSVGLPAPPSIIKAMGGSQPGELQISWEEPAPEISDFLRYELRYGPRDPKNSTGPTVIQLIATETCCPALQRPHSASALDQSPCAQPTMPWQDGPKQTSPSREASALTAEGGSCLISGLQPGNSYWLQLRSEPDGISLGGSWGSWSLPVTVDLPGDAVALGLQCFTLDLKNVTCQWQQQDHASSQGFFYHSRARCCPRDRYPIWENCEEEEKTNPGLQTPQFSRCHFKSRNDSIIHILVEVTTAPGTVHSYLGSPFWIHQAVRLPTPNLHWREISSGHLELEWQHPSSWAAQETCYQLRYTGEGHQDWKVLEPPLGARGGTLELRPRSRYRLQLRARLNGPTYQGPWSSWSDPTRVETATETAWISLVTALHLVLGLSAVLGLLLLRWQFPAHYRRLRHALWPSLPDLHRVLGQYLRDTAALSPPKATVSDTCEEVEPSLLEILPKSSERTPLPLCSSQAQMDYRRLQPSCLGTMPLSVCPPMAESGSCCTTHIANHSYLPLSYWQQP
In words: cell-based or functional assay.

Test [5] addresses T1, Human Mpl-IgG Fc fusion protein …. In words: ELISA on plates coated with hMpl-Fc, IgG.

A value given as a limit tells only on which side of the number the result lay.

This note sets out measurements from patent US20070281327A1 (published 2007).

Broadly, the EC50 is the concentration at which the effect is half-maximal. A higher EC50 goes with a need for much substance.

B1: VA130 sc(Fv)2 (other)
chain: QVQLQQSGPELVKPGASVKISCKASGYAFSSSWMNWVKQRPGKGLEWIGRIYPGDGDTNYNGKFKGKATLTADKSSSTAYIQLSSLTSEDSAVYFCARGYADYSFAYWGQGTLVTVSAGGGGSGGGGSGGGGSDIVMTQAAPSVPVTPGESVSISCRSSKSLLHSNGNTYLYWFLQRPGQSPQLLIYRMSNLASGVPDRFSGSGSGTAFTLRISRVEAEDVGVYYCMQHLEYPYTFGSGTKLEIKGGGGSGGGGSGGGGSQVQLQQSGPELVKPGASVKISCKASGYAFSSSWMNWVKQRPGKGLEWIGRIYPGDGDTNYNGKFKGKATLTADKSSSTAYIQLSSLTSEDSAVYFCARGYADYSFAYWGQGTLVTVSAGGGGSGGGGSGGGGSDIVMTQAAPSVPVTPGESVSISCRSSKSLLHSNGNTYLYWFLQRPGQSPQLLIYRMSNLASGVPDRFSGSGSGTAFTLRISRVEAEDVGVYYCMQHLEYPYTFGSGTKLEIKDYKDDDDK
notes: A single polypeptide with two VH and two VL units from VA130; also called anti-human Mpl antibody sc(Fv)2; VA130 single-chain antibody
In test [1], B1 had an Agonistic activity, Analysis using Baf-hMpl (EC50) of 1.02 nM. It took 0.27 nM to reach a half-maximal effect in test [2] (EC50).

B2: VA130 diabody (VA130 single-chain Fv with a five-amino acid (Gly4Ser)1 linker, FLAG-tagged) (scFv)
scFv: QVQLQQSGPELVKPGASVKISCKASGYAFSSSWMNWVKQRPGKGLEWIGRIYPGDGDTNYNGKFKGKATLTADKSSSTAYIQLSSLTSEDSAVYFCARGYADYSFAYWGQGTLVTVSAGGGGSDIVMTQAAPSVPVTPGESVSISCRSSKSLLHSNGNTYLYWFLQRPGQSPQLLIYRMSNLASGVPDRFSGSGSGTAFTLRISRVEAEDVGVYYCMQHLEYPYTFGSGTKLEIKDYKDDDDK
notes: The order is VH-(Gly4Ser)1-VL-FLAG; also called VA130 db
Molecule B2 gave an EC50 in test [3] of 0.11 nM. In test [1], the Agonistic activity, Analysis using Baf-hMpl (EC50) came to 0.222 nM.

B3: VA130 IgG (mouse monoclonal anti-human Mpl antibody VA130) (antibody, V domains shown)
VH: QVQLQQSGPELVKPGASVKISCKASGYAFSSSWMNWVKQRPGKGLEWIGRIYPGDGDTNYNGKFKGKATLTADKSSSTAYIQLSSLTSEDSAVYFCARGYADYSFAYWGQGTLVTVSA
VL: DIVMTQAAPSVPVTPGESVSISCRSSKSLLHSNGNTYLYWFLQRPGQSPQLLIYRMSNLASGVPDRFSGSGSGTAFTLRISRVEAEDVGVYYCMQHLEYPYTFGSGTKLEIK
notes: Whole mouse IgG from a hybridoma; also called VA130 antibody; VA130 anti-human Mpl antibody
With B3, in test [4], the “TPO-like agonist activity, BaF3-human Mpl proliferation (WST-8), EC50” value was above 100 nM. Further, the EC50 in test [5] is 0.38 nM.

B4: VB16 IgG (mouse monoclonal anti-human Mpl antibody VB16) (antibody, V domains shown)
VH: QVQLQQPGTELVRPGASVKLSCKASGYTFTDYWVNWVKQRPGRGLEWIGRIHPYDSETHYNQKFKNKATLTVDKSSSTAYIQLSSLTSEDSAVYYCASGGWFASWGQGTLVTVSA
VL: DIVMTQAAPSVPVTPGESVSISCRSSKSLLYSNGNTYLYWFLQRPGQSPQLLIYRMSNLASGVPDRFSGSGSGTAFTLTISSVEAEDVGVYYCMQHLEYPYTFGSGTKLEIK
For the molecule B4, the 50% effective concentration (EC50) in test [5] stood at 0.15 nM.
